Experimental data published in patent US9371374 (AbbVie / Abbott, dated 2016).
Substitutions are numbered along the chain they refer to.

B1: HCV 208B-612 (antibody, V domains shown)
VH: EVQLQQSGPELVKPGASVKMSCKASGYRFTSYVMHWVRQKPGQGLEWIGYIDPHNDDTKYSEKFRGKATLTSDKSSTTAYMELSSLTSEDSAVYYCVRYSYDRDYSPMDYWGQGTSVTVSS
VL: QIVLTQSPTLMSASPGEKVTMTCSASSTVTYIYWYQQKPGSSPRLWMYDTFNLVSGVPARFSGSRSGTSYFLTISSMEGEDAATYYCQQYSDSPYTFGGGTKLEIKR
B2: HCV 208B-862 (antibody, V domains shown)
VH: DVQLQESGPGLVKPSQSLSLTCTVTGYSITSDYAWNWIRQFPGNKLEWMGYISYSGTTVYSPSLKSRISITRDTSKNQFFLQLNSVTIEDSATYYCGGNYWGQGTLVTVSA
VL: DVVLTQTPLSLPLSLGDQASISCRSSQTLLHSDGDTYLHWYLQKPGQSPKLLIYKLSNRFSGVPDRFSGSGSGTDFTLKISRVEAEDLGVYFCSQSTHVPYTFGGGTKLEIKR
B3: HCV 208A-207 (antibody, V domains shown)
VH: QGQLQQPGAEFVKPGASLKLSCRASGYTFTSYWIHWVKQRPGQGLEWIGEIDPSDSYINQNQKFRGKATLTVDKSSSTAYMELSGLTSEDSAVYYCARHYYGVLDSWGQGTTLTVSS
VL: DIVLTQSPATLSVTPGDRVSLSCRASQRIYNYLHWYQQKSHESPRLLTKYASQSISGIPSRFSGSGSGTDFILTINSVETEDFGMYFCQQSNSWPLTFGAGTKLELRR
B4: HCV 208A-110 (antibody, V domains shown)
VH: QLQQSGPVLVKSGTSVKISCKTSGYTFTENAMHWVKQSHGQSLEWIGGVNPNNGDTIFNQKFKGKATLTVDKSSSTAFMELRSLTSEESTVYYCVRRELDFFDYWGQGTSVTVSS
VL: DIVLTQSPASLAVSLGQRATISCRASQSVSTSRYSYMHWYQQKPGQPPKLLIKYASNLESGVPARFSGSGSGTDFTLNIHPVAEEDTAAYYCQHSWEFPFTFGSGTKLEIKR
B5: HCV 208A-557 (antibody, V domains shown)
VH: QGQMQQSGAELVKPGASVKLSCKTSGFTFSSSYISWLKQKPGQSLEWIAWIYAGTGNTNYNQKFTDKAQLTVDTSSSTAYMQLSSLTTEDSAIYYCAISGTGFTYWGQGTLVTVSA
VL: B4 VL with V3A, K49E, A83G, A89T, E97D

Columns and labels:
HCV Core1-169 [1] = target: T1, HCV Core1-169 (HCV-1, UniProt P26664 1-169); assay: sandwich EIA, capture 208B-1096
T1 construct: also called Solid Phase HCV Core
T1 sequence: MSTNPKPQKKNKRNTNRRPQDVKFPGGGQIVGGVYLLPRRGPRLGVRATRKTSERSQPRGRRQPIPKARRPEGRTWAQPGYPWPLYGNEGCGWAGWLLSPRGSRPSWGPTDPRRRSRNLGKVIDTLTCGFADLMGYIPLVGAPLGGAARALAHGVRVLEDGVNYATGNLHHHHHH

HCV Core1-169 [2] = target: T1, HCV Core1-169; assay: sandwich EIA, capture 208B-395-334
[3] = target: HCV Core 134-171-TT peptide (ALRZ-9 peptide) (HCV-1); assay: SPR, captured mAb;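 note: Anti-HCV Core mAbs from hybridoma supernatants held on a rabbit anti-mouse IgG CM5 surface, peptide flowed over 3 min then 4 min dissociation, duplicate concentrations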
HCV Core1-169 [4] = target: T1, HCV Core1-169; assay: sandwich EIA, capture 208A-110
HCV Core1-169 [5] = target: T1, HCV Core1-169; assay: sandwich EIA, capture 208A-293
HCV Core1-169 [6] = target: T1, HCV Core1-169; assay: sandwich EIA, capture C11-9
HCV Core1-169 [7] = target: T1, HCV Core1-169; assay: sandwich EIA, capture C11-7
HCV Core1-169 [8] = target: T1, HCV Core1-169; assay: sandwich EIA, capture 208B-612-226
HCV Core1-169 [9] = target: T1, HCV Core1-169; assay: sandwich EIA, capture 208A-207-271
HCV Core1-169 [10] = target: T1, HCV Core1-169; assay: sandwich EIA, capture 208A-557
HCV Core1-169 [11] = target: T1, HCV Core1-169; assay: sandwich EIA, capture 208B-741
HCV Core1-169 [12] = target: T1, HCV Core1-169; assay: sandwich EIA, NC capture mAb; note: test concentration or dose not given here
[13] = target: HCV Core 134-171-TT peptide (ALRZ-9 peptide) (HCV-1); assay: SPR, captured mAb; remark: listed apart in the source;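 note: Anti-HCV Core mAbs from hybridoma supernatants held on a rabbit anti-mouse IgG CM5 surface, peptide flowed over 3 min then 4 min dissociation, duplicate concentrations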
HCV Core1-169 [14] = target: T1, HCV Core1-169; assay: SPR sandwich, C11-14 capture
HCV Core1-169 [15] = target: T1, HCV Core1-169; assay: SPR sandwich, C11-9 capture
HCV Core1-169 [16] = target: T1, HCV Core1-169; assay: EIA, coated core1-169
HCV Core1-169 [17] = target: T1, HCV Core1-169; assay: SPR sandwich, C11-3 capture
HCV Core1-169 [18] = target: T1, HCV Core1-169; assay: EIA, core captured by anti-domain 1 mAb
HCV Core1-169 [19] = target: T1, HCV Core1-169; assay: SPR sandwich, C11-7 capture
HCV Core1-169 [20] = target: T1, HCV Core1-169; assay: sandwich EIA, capture 208A-692

Row | Binder | OD492 (HCV Core1-169 [1]) [OD] | OD492 (HCV Core1-169 [2]) [OD] | Kd [3] [nM] | koff [3] [s⁻¹] | kon [3] [M⁻¹ s⁻¹] | OD492 (HCV Core1-169 [4]) [OD] | OD492 (HCV Core1-169 [5]) [OD] | OD492 (HCV Core1-169 [6]) [OD] | OD492 (HCV Core1-169 [7]) [OD] | OD492 (HCV Core1-169 [8]) [OD] | OD492 (HCV Core1-169 [9]) [OD] | OD492 (HCV Core1-169 [10]) [OD] | OD492 (HCV Core1-169 [11]) [OD] | OD492 (HCV Core1-169 [12]) [OD] | OD492 (HCV Core1-169 [20]) [OD] | also measured
1 | B1 | 0.7 | 0.83 | 0.35 | 6.5e-05 | 180000 | 0.26 | 0.28 | 0.64 | 1.52 | 0.23 | 0.24 | 0.23 | 0.23 | 0.21 | – | –
2 | B2 | – | – | – | – | – | – | – | – | – | – | – | – | – | – | – | Kd [13]: 0.07 nM; koff [13]: 0.0001 s⁻¹; kon [13]: 1.4e+06 M⁻¹ s⁻¹; expected % binding (HCV Core1-169 [14]): 12.6%; expected % binding (HCV Core1-169 [15]): 8.9%; OD (A492) (HCV Core1-169 [16]): 0.49 OD; expected % binding (HCV Core1-169 [17]): 11.2%; OD (A492) (HCV Core1-169 [18]): 1.07 OD; expected % binding (HCV Core1-169 [19]): 15.2%
3 | B3 | 0.33 | 0.37 | < 0.032 | < 1e-05 | 310000 | 0.38 | 0.42 | 2.2 | 2.47 | 0.33 | 0.36 | 0.82 | 0.3 | 0.37 | 0.42 | –
4 | B4 | 0.21 | 0.22 | 0.33 | 0.00055 | 1.7e+06 | 0.18 | 0.2 | 0.13 | 0.18 | 0.2 | 0.17 | 0.17 | 0.2 | 0.15 | 0.14 | –
5 | B5 | 0.35 | 0.28 | 0.091 | 0.00021 | 2.4e+06 | 0.44 | 0.41 | 0.14 | 0.22 | 0.25 | 0.18 | 0.32 | 0.38 | 0.18 | 0.13 | –
